Assay results published in a protein production outcome set (Wang et al. 2014).

Experiment: label from the status in PepcDB records
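Note: failed if final PepcDB status was selected cloned or expressed and not failed if soluble or beyond.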

Q: Which protein production does the source give for “MMTCDEIRLPKPPRLQPFLFLLRNDSLSKYSQPPRFDLARILFSLVFITIMIIACFWVVQPFILGFAWACMVVIATWPMLIKFQALLWGRRSLAVLVMTLLLILLFVVPIAVLVSSVIDNSSALMSWGSRQENLSPPTLEWLTSIPLVGEKLFNSWQALLQSGGSGLFAKVQPYFGKTATWLVAQAAHVGRFLMHCSLMLIFSALLYYKGEAVAKAVRHFAIRLGRERGDAAVILAAQSIRAVALGVVVTAIVQSVLGGIGLGLSGIPYTTLLTVLMFLCCLAQLGPLLVLIPAIIWLYWTGDNTWGTILLVWSCVVGTIDNVIRPMLIRMGADLPMLLILSGVIGGLLAFGMIGLFIGPVVLAVSYRLLFAWMREIPEPQNLLSVNTTKTPNKES” here?
A: failed

Q: With “MQPTSITVASYNLRNANGGDSINGNGWGQRYPVIAQIVQYHDFDIFGTQECFIHQLKDMKEALPGYDYIGVGRDDGKEKGEHSAIFYRTDKFDVIEKGDFWLSETPDVPSKGWDAVLPRICSWGHFKCKDTGFEFLFFNLHMDHIGKKARVESAFLVQDKMKELGKGKELPAILTGDFNVDQTHQSYDAFVSKGVLCDSYEKAGFRYAINGTFNDFDPNSFTESRIDHIFVSPSFQVKRYGVLTDTYRSIVGKGEKKQANDCPEEIDIKTYQARTPSDHFPVKVELEFDQRQQKLEHHHHHH” as the sequence, how does the protein production read?
A: not failed

Q: With “NGQAITLASKHYGSVNSAADLKGMVLGIPFEYSVHALLLRDYLVSNAVDPIADLELRLLRPADMVAQLTVEGIDGFIGPGPFNERAISNGSGRIWLLTKQLWDKHPCCAVAMAKEWKAEHPTAAQGVLNALEEASAILSNPA” as the sequence, how does the protein production read?
A: failed

Q: Which protein production does the source give for “MWYYFQPKRLCHNSFMIPEKLLTYTKTIFEYSHSTVYIKDKNFHYQYMNNRGLKQLQLQEKDIMGMPDKALPFGKYAHFYNSHDYSAMEEIIYFQLDDCITKNGEKIFALSHKLPLKDEDGKTHGVIGFTKFMNLHQLMNNLNSKNTFLTPNLKINVNVDDWLKTTINLSRREMEVLYYFLQGKSIKLIAPLLHITERTVIFHLNNIKSKWGCYNKEDIYTKSFEKGLKNLTIIWDLLAMRS” here?
A: failed

Q: With “MKRTVALAASLSLLWLLLSGYWHDPLLLGFGLLSVGAVVALSLRMGIVDAEGVPLRQIPGLITYLPWLAWQVVLSAITVARIVLSPKLSISPTLAAIPAAPKTAIGQVILANSITLTPGTLSLDLDDGAVLVHGLCAAGIDDLMTGEMGRRVAALDGRGAP” as the sequence, how does the protein production read?
A: failed

Q: Which protein production does the source give for “MGVARPNFFIVGAAKCGTSSLDRYLSQHPDIYIPPKKEAHFFSIPDFPERFTGPGDEGMNLYTIRDEDAYMRLFDGVRGERAVGEASVFYLFYPGTAQRMYDAYPDAKILIMLRNPVDRAFSAYMHLVRDERETLSFRESLAKEEERIRQHYEPLWYYRAVGLYAAQVKRYLDVFGREQVKVILFEEFARDPVQVVRDCCAFLGVSTDFVPDTSIRHNESGVPKSRSLYNFIAKPNALKEIVKPFIPAAVRERLGNRAKSMVLGRMEMEPDLREELTAFFAPDVARLEALIHRDLSAWRRPARAAGSQ” here?
A: not failed

Q: Which protein production does the source give for “MTTRTRNLYILMLANLLMSASMTMIMPFLSLYIETFGDYSNAYVQRWAGYIFGVTFLIAFIFSPIWGRIGDKHGYKGILILTSVGLSICIFLMGFAHSVTYLLILRIFMGVVTGFIGVSNAFIARQTPRNEAGKVLGTLQLGGVTGMLFGPLIGGAMADLFGFKDTFTITGIAMMVAALIVAFGVKEIRTEEQKEAAKVVYSRRAVLKQIFTLRVLFTVMVITALIQIANFSVQPLLALYVGDMTQSDNIAFLSGLAFSATGFGNLVMTRKWGQLGDKYGYEKILNILLIMAAVFVIPQAFATNLWVFIFFRFLFGIAIGGMVPCTTAYIRLAAPGVMQGEMLGYNQSARFLGNVIGPILGGTLAGFTGIPSVFLFMSFMFLVAFFILLYALRSDRKRHVNVD” here?
A: failed

Q: With “MGITITDELLWAILKDELSDAEANALVWQALGYVWDEAQSCWKTDLVAPEWRQDYPEPPDFIASRPATVKLTRSIPAPYKQLLKEELGFAGYSINELVPRKTRRATMTNWLLAYRRSQQD” as the sequence, how does the protein production read?
A: not failed

Q: Which protein production does the source give for “MKTLCTHSLPKEKMPYLLRSGEGERYLFGRQVATVMANGRSTGDLFEIVLLSGGKGDAFPLHVHKDTHEGILVLDGKLELTLDGERYLLISGDYANIPAGTPHSYRMQSHRTRLVSYTMKGNVAHLYSVIGNPYDHAEHPPYASEEVSNERFAEAAAVADIVFLDEAKPACSAKLAELTELPDGAVPYVLESGEGDRLLTGDQLHRIVAAQKNTDGQFIVVSSEGPKGDRIVDHYHEYHTETFYCLEGQMTMWTDGQEIQLNPGDFLHVPANTVHSYRLDSHYTKMVGVLVPGLFEPFFRTLGDPYEGHIFPCEPQALRFDRILQNIEALDLKVMKP” here?
A: not failed

Q: Which protein production does the source give for “MAVPPVEMYSGSFWNRMRKPLPLRTQVIRFTVVFVIVSFILAVALQITHERMPDPKVTKPLPDLGFELLTKVPGMYVLADCCIGFLNILSVFTAFKLYLLHRHCVGSGEPELPCNIPGVSRFFLSVWLCKENCRIELRNIHTIAWIRFITSYALLLLFRSAVIVMTSLPAPDDLCQDPPKIENPVKNVILTVLTAGGGSIHCGDLMYSGHTVILTLHLMFHWIYGAMVHWSFRPVVTVVAIFGYYCIVASRFHYTDDVLVAIYLTIATFIAVGHNADGAPWQLQLFIRWWPCCGANSREVTEDSQPVMVAFKSEELDEMNGVLEGRQKKHGGVGDGESLMFKCGAYVVSHHHHHH” here?
A: not failed

Q: For “MFQALIDVVLPVFLVIGAGYCTTFAGYFKPEHIDGVMRFTQGFAIPCLLFRAIANLDLNAGFDPALLASFYMAAFLCFTAGLLGARLLFNRDWEDSVAIGFCCLFSNSVLLGLAITERAYGPENLVGNYAIIAIHSPFCYALGITTMEVIRNRGRGGRKMVTSVLNAMFRNVLILGIALGFIVNLSGISLPQIADDALSLIIRAALPGALFALGGVLVQYRPEGDTRVIVYICAISLLLHPGLVWLFGSALALPQDLFRSGVLNAAMAPGFNAYIFANIYGRAKRVAASSVLVATAASILTVWMWLMLLG”, which protein production is on record?
A: failed

Q: With “MLDKNVLNEIGSKVNEILASSPARDVEKNMRAMLTGAFARLDLVTREEFDVQQEVIKRTRIKLAELEEKVRKLEQQLQQPAEVVSSNETGDA” as the sequence, how does the protein production read?
A: not failed

Q: For “MDVEDYITLFLSLWIIASALAVKSVDVFLTLTLIGLLITLEVGGLFLSKEQKENLQPLIEILLLVFAVIVVKKVYEVLSG”, which protein production is on record?
A: failed

Q: Which protein production does the source give for “MVRVGMRAAPRVSLEALKAALGGLKLSEAKVYLITDWQDKRDQARYALLLHTGKKDLLVPDAFGPAFPGGEEALSELVGLLLAQGARRFYEAVVSPGEMTALLDLPPEELLKRVMAIANPTDPGIYLKRAA” here?
A: not failed

Q: With “IAAGGSHVEAAPQEEWKKHFIHTGELGSAEFASVMSHTTSAMKSVFEQVNAPYSGMDPKALEDAINAVDLDNKNAPLKSVIDDVAELVAKNAIFTQHPDCIAHLHTPPLMPAVAAEAMIAALNQSMDSWDQASSATYVEQKVVNWLCDKYDLSEKADGIFTSGGTQSNQMGLMLARDWIADKLSGHSIQKLGLPDYADKLRIVCSKKSHFTVQKSASWMGLGEKAVMTVDANADGTMDITKLDEVIAQAKAEGLIPFAIVGTAGTTDHGAIDDLDFIADMAVKHDMWMHVDGAYGGALILSSHKSRLKGVERAHSISVDFHKLFYQTISCGALLVNDKSNFKFLLHHADYLNREHDELPNLVDKSIATTKRFDALKVFMTMQNVGPKALGDMYDHLLAQTLEVADMIRTNDQFELLAEPSLSTVLFRATHETADLDELNKALRLEALTRGIAVLGETIVDGKTALKFTILNPCLTTSDFESLLSKINMLAVELV” as the sequence, how does the protein production read?
A: not failed

Q: For “GREQMASFESAYVALSRMKQHVQVYTDNREGWIKAIKNSPEKATAHDILEPRNDRAVKTADLLFGRARPLDETAAGRAALQQSGLAQGSSPGKFISPGKKYPQPHVALPAFDKNGKAAGIWLSPLTDRDGRLEAIGGEGRIMGNEDARFVALQNSRNGESLLAGNMGEGVRMARDNPDTGVVVRLAGDDRPWNPGAMTGGRVWAEPAPVAPVPQAGADIILPPEVLAQRAAEEQQRREMEKKAEQTAREMAGEARKAG”, which protein production is on record?
A: failed

Q: With “PIKMGWLKKQRSIVKNWQQRYFVLRAQQLYYYKDEEDTKPQGCMYLPGCTIKEIATNPEEAGKFVFEIIPASWDQNRMGQDSYVLMASSQAEMEEWVKFLRRVAG” as the sequence, how does the protein production read?
A: not failed

Q: With “MKLVEHYIMRGTRRLVLIIVGFLIFIFASYSAQRYLTEAANGTLALDVVLDIVFYKVLIALEMLLPVGLYVSVGVTLGQMYTDSEITAISAAGGSPGRLYKAVLYLAIPLSIFVTLLSMYGRPWAYAQIYQLEQQSQSELDVRQLRAKKFNTNDNGRMILSQTVDQDNNRLTDALIYTSTANRTRIFRAGSVDVVDPSPEKPTVMLHNGTAYLLDHQGRDDNEQIYRNLQLHLNPLDQSPNVKRKAKSVTELARSAFPADHAELQWRQSRGLTALLMALLAISLSRVKPRQGRFSTLLPLTLLFIAIFYGGDVCRTLVANGAIPLIPGLWLVPGLMLMGLLILVARDFSLLQKFSR” as the sequence, how does the protein production read?
A: failed

Q: Which protein production does the source give for “MKKKNILFFLLCFLLTSLSAQTLEQARGMYGRGQYAEAKPVFQKYVKSQPANGNYNLWYGVCCLKTGNAAEALKYLETAVKKRIPSGQLYLAQTYNDLYRFQDAVDCYEEYIADLSKRKKPTEEAEQLLEKAKGNLRMLKGVEDVCVIDSFVIDKANFLKAYKISEESGKLFTYNDYFKTKGYHPGTVYETEIGNRIYYSEQGEESLNILSKTKMLDEWSQGKPLPGSINASGNANYPYVLSDGVTIYYASDGDGSMGGYDIFVTRYNTNTDTYLVPENVGMPFNSPYNDYMYVIDEYNNLGWFASDRYQPEDKVCIYVFVPNDSKRTYNYEAMEPEKMIELAQLHSLESTWKDSKIVDDARQRLEAVINHKPAVEQNFDFEFIIDDHSTYHHLTDFKSPKAKQLYLKYEQMEKDYRQQTGKLKSQREGFARSNKDEQSKMAPAIRDLEKRVLQMSEELDKQAIEVRNAEKQNLK” here?
A: failed

Q: With “MVYKNILVGLDGSSQADNAFKVACGLANALSADLHPIWIVNRDRGMDSSFGVNEDFYRDQYHQVQDKLVSYVEDAKKAGLKVTGEALVGNIKLVLANEYPKEHGIDLIVLGNTGLNTVEKLVVGSHTSYVIRNSACDVLVVK” as the sequence, how does the protein production read?
A: failed

Q: For “MFQAIQQKLLLMPSGKKNLLSLGMKTAITRVFSALFAFLLTLIVSRTTDASTSGQFFFLFNLVSLTAIISQRGFDVALVRFNAIAFSNGDIQQQSDNYWTALTRSITFCFMAAVTLFVGFYLFPNQLNQTNSPIVAITLALMCVPFLVLGQTNSRVLQASKMVVPSLFALQLGVSVLMVLFIMGLSTLHLQNINSLMTALLLASLIVSIASTTKWFSSGQYQKPTPTTNIELISSAKQVWIGSIFTNILQWGSIVIAGFFISTTELGLLAAAQRTSLLIGFVLITINFVVAPMFASLFKEGKLDKLRNLSRWACRANIGAALLPVLVCTLFPEFVMQLFGDEFLAAAPLLVVLSLGQLVNIATGSVGFLLLMSGHERTMKYITICSGTISIALLVFLSQSYGVLGAAWAMAIGMAIQNLAALYFVKRYLGFFPVG”, which protein production is on record?
A: failed

Q: For “MDLHESESRTHVLSTDGDDGYIDMEVNLSSSSSSSTSSSSFFSFPVTSSPPQSREFEFQMCSSAVASGESTTSPADELFYKGQLLPLHLPPRLKMVQKLLLASSSSTAATETPISPRAAADVLSPRRFSSCEIGQDENCFFEISTELKRFIESNENHLGNSWSKKIKHSSITQKLKASRAYIKALFSKQACSDSSEINPRFKIEPSKVSRKKNPFVNSENPLLIHRRSFSGVIQRHSQAKCSTSSSSSSSASSLSSSFSFGSNGSLDLQTLMRSSNASDNSIEGAIEHCKQSFTTRKSNVTESELCSSRTSVSTCGDLDKD”, which protein production is on record?
A: failed

Q: For “MLGYLLLYMIFGGILLAYGSDWFIEGSTRVAKHFNVSNFVIGATIVAFGTSLPEIVTSSGAALSGSPGLAVGNAIGSCIANIGIILGISVLMYPLIIKKRAIIKNGNIYLIATILLVILGYNGFSRFDGLILFLFMIIYVIYTIKTSESDEEEIISDITVKKASIFIVVGLLAVILGSDLFIGGAKGIAEYFNVPESIIGFSLVAFGTSLPELASSVAAAKRKLGSIVLGNVIGSNIANTCVALSFSAMIVDIPKYNVELMVNTIMALLIIFTMNREKIKKMLNFKNFRTDYFSKIDRIDGISYILIYLIFLAYLLGYIF”, which protein production is on record?
A: failed
